Assay results as given in patent US20240409645A1 (DUALYX, published 2024).
Positions count from the first letter of the chain named.

T1: mouse IL-2Rγ (mouse, UniProt P34902 23-263)
T1 construct: also called mo IL-2R
T1 sequence (looked up): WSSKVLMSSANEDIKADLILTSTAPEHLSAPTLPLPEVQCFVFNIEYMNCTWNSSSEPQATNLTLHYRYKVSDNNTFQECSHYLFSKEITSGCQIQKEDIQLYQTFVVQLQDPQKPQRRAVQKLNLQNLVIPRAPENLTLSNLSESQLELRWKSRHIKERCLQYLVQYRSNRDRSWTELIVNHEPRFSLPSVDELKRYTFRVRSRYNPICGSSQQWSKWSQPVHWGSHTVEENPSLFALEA

T2: human IL-2Rγ (common cytokine receptor γ-chain) (human, UniProt P31785 23-262, limits assumed)
T2 construct: Recombinant protein coated on the plate or immobilised on a CM5 chip; also called hu IL-2R; CD132
T2 sequence: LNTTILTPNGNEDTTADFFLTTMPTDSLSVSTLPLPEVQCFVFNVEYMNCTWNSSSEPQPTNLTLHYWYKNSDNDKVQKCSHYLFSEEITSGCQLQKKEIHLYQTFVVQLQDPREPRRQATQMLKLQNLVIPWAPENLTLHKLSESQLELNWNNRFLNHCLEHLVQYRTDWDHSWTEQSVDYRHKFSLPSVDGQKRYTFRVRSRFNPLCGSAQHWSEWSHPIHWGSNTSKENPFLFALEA

B1: FJ1427_P035MP04C06 (VHH)
VHH: EVQLVESGGGLVQAGGSLRLSCAASGRTLSRYAMGWFRQAPGKEREFVTANSWGGDTYYADSVQGRFTFSRDNAKNTVYLQMNSLQPEDTAVYYCAAAPTSFATTAYSSSNSYAYWGQGTQVTVSS
notes: VHH in periplasmic extract; also called clone nr
B2: FJ1427_P035MP04D03 (VHH)
VHH: B1 VHH with G15E
notes: as for B1
B3: FJ1427_P035MP04D06 (VHH)
VHH: B1 VHH with E1Q, T28A, Y32L, T49V, N51S, G55D, Y58F, Q64K, E88G
notes: as for B1
B4: FJ1427_P035MP04E07 (VHH)
VHH: B1 VHH with E1Q, E46D, T49A, N51T, Q64E, T77A
notes: as for B1
B5: FJ1427_P035MP04E09 (VHH)
VHH: B1 VHH with E1Q, F67S
notes: as for B1
B6: FJ1427_P035MP04F03 (VHH)
VHH: B1 VHH with E1Q, Y32N, T49A, N51D, Y58F, Q64E, T77A, A97G, A114R
notes: VHH in periplasmic extract; also called clone nr; 310
B7: FJ1427_P035MP04F07 (VHH)
VHH: B1 VHH
notes: as for B1
B8: FJ1427_P035MP04G04 (VHH)
VHH: B1 VHH with E1Q, M34V, Y58F, Q86L, T90A, A114K, Y115V
notes: as for B1
B9: FJ1427_P035MP04H03 (VHH)
VHH: QLQLVESGGGLVQAGGSLRLSCAASGRTLSRYAMGWFRQAPGKEREFVAADSWGGDTFYADSVEGRFTFSRDNAKNAAYLQMNSLQPEDTATYYCAGAPTSFATTAYSSSNSYRYWGQGTQVTVSS
notes: as for B1
B10: FJ1427_P035MP04H07 (VHH)
VHH: B1 VHH with E1Q, V2L
notes: as for B1
B11: 38-MP07A11 (VHH)
VHH: QVQLVESGGGLVQAGGSLRLSCAASGRSLSRDAMGWFRQAPGKEREFVAVMSWGGDTFYTDSVEGRFTFSRDNAKNAVYLEMNDLQPEDTAVYYCAAAPTSFATTAYSSSNSYSYWGRGTQVTVSS
notes: VHH in periplasmic extract; also called FJ1427_P035MP07A11; clone nr
B12: FJ1427_P035MP04E01 (VHH)
VHH: B1 VHH with E1Q
notes: as for B1
B13: FJ1427_P035MP04F01 (VHH)
VHH: B1 VHH with E1Q
notes: as for B1
B14: FJ1427_P035MP04H01 (VHH)
VHH: B1 VHH with E1Q
notes: as for B1
B15: FJ1427_P035MP04A02 (VHH)
VHH: B1 VHH with E1Q
notes: as for B1
B16: FJ1427_P035MP04C02 (VHH)
VHH: B1 VHH with E1Q
notes: as for B1
B17: FJ1427_P035MP04G02 (VHH)
VHH: B1 VHH with E1Q
notes: as for B1
B18: FJ1427_P035MP04H05 (VHH)
VHH: B1 VHH with E1Q
notes: as for B1
B19: FJ1427_P035MP04F06 (VHH)
VHH: B1 VHH with E1Q
notes: as for B1
B20: FJ1427_P035MP04E08 (VHH)
VHH: B1 VHH with E1Q
notes: as for B1
B21: FJ1427_P035MP04B09 (VHH)
VHH: B1 VHH with E1Q
notes: as for B1
B22: FJ1427_P035MP04D10 (VHH)
VHH: B1 VHH with E1Q
notes: VHH in periplasmic extract; also called clone nr; 364
B23: FJ1427_P035MP04E11 (VHH)
VHH: B1 VHH with E1Q
notes: as for B1
B24: FJ1427_P035MP04B12 (VHH)
VHH: B1 VHH with E1Q
notes: as for B1

The binders below were run against T1, mouse IL-2Rγ (assay: PE binding ELISA, periplasmic extract on coated protein).
Procedure, shortened: (§1)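 Read-out: OD at 450 nm, specificity called versus negative controls. Receptor chains (human or mouse IL-2Rα, β, γ) were coated directly overnight at 4° C; 4% Marvel/PBS block 1 h; P.E. at 1:5 dilution in 1% Marvel/PBS incubated 1 h.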
In the case of B1, the “OD (PE binding ELISA)” value is reported as 0.061 OD450 nm.
For B2, the “OD (PE binding ELISA)” value was 0.063 OD450 nm.
For B3, the “OD (PE binding ELISA)” value was 0.637 OD450 nm.
In the case of B4, the “OD (PE binding ELISA)” value is reported as 0.079 OD450 nm.
In the case of B5, the “OD (PE binding ELISA)” value is reported as 0.07 OD450 nm.
In the case of B6, the “OD (PE binding ELISA)” value is reported as 0.3 OD450 nm.
For B7, the “OD (PE binding ELISA)” value was 0.064 OD450 nm.
In the case of B8, the “OD (PE binding ELISA)” value is reported as 0.276 OD450 nm.
B9 was tested, and the “OD (PE binding ELISA)” value was 0.442 OD450 nm.
For B10, the “OD (PE binding ELISA)” value was 0.076 OD450 nm.
B11 was tested, and the “OD (PE binding ELISA)” value was 0.173 OD450 nm.
B12 was tested, and the “OD (PE binding ELISA)” value was 0.067 OD450 nm.
In the case of B13, the “OD (PE binding ELISA)” value is reported as 0.085 OD450 nm.
B14 was tested, and the “OD (PE binding ELISA)” value was 0.109 OD450 nm.
In the case of B15, the “OD (PE binding ELISA)” value is reported as 0.085 OD450 nm.
For B16, the “OD (PE binding ELISA)” value was 0.07 OD450 nm.
With B17 the “OD (PE binding ELISA)” value was 0.066 OD450 nm.
For B18, the “OD (PE binding ELISA)” value was 0.08 OD450 nm.
For B19, the “OD (PE binding ELISA)” value was 0.077 OD450 nm.
For B20, the “OD (PE binding ELISA)” value was 0.078 OD450 nm.
In the case of B21, the “OD (PE binding ELISA)” value is reported as 0.083 OD450 nm.
For B22, the “OD (PE binding ELISA)” value was 0.077 OD450 nm.
For B23, the “OD (PE binding ELISA)” value was 0.065 OD450 nm.
In the case of B24, the “OD (PE binding ELISA)” value is reported as 0.074 OD450 nm.

The binders below were run against T2, human IL-2Rγ (common cytokine receptor …) in the same assay as above.
Procedure, shortened: as §1
For B1, the “OD (PE binding ELISA)” value was 0.797 OD450 nm.
B2 was tested, and the “OD (PE binding ELISA)” value was 1.66 OD450 nm.
B3 was tested, and the “OD (PE binding ELISA)” value was 2.1 OD450 nm.
With B4 the “OD (PE binding ELISA)” value was 0.919 OD450 nm.
In the case of B5, the “OD (PE binding ELISA)” value is reported as 0.652 OD450 nm.
In the case of B6, the “OD (PE binding ELISA)” value is reported as 1.77 OD450 nm.
In the case of B7, the “OD (PE binding ELISA)” value is reported as 0.789 OD450 nm.
For B8, the “OD (PE binding ELISA)” value was 1.67 OD450 nm.
B9 was tested, and the “OD (PE binding ELISA)” value was 1.25 OD450 nm.
With B10 the “OD (PE binding ELISA)” value was 0.919 OD450 nm.
In the case of B11, the “OD (PE binding ELISA)” value is reported as 1.31 OD450 nm.
B12 was tested, and the “OD (PE binding ELISA)” value was 1.08 OD450 nm.
With B13 the “OD (PE binding ELISA)” value was 1.66 OD450 nm.
For B14, the “OD (PE binding ELISA)” value was 1.67 OD450 nm.
With B15 the “OD (PE binding ELISA)” value was 1.45 OD450 nm.
B16 was tested, and the “OD (PE binding ELISA)” value was 1 OD450 nm.
In the case of B17, the “OD (PE binding ELISA)” value is reported as 0.98 OD450 nm.
B18 was tested, and the “OD (PE binding ELISA)” value was 1.57 OD450 nm.
In the case of B19, the “OD (PE binding ELISA)” value is reported as 1.41 OD450 nm.
B20 was tested, and the “OD (PE binding ELISA)” value was 1.23 OD450 nm.
In the case of B21, the “OD (PE binding ELISA)” value is reported as 1.54 OD450 nm.
For B22, the “OD (PE binding ELISA)” value was 1.26 OD450 nm.
For B23, the “OD (PE binding ELISA)” value was 0.94 OD450 nm.
With B24 the “OD (PE binding ELISA)” value was 0.936 OD450 nm.

What follows are binders tested against T1, mouse IL-2Rγ (assay: SPR off-rate ranking, periplasmic extract on immobilised protein).
Procedure, shortened: (§2)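 CM5 chip, amine coupling (acetate buffer), ~2500 RU receptor. VHH P.E. flowed at 30 uL/min; off-rate read over 120 s.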
Work on B1 yielded a koff of 0.0465 s⁻¹.
In the case of B2, the koff is reported as 0.168 s⁻¹.
B3 showed a koff of 0.0137 s⁻¹.
Work on B4 yielded a koff of 0.215 s⁻¹.
In the case of B5, the koff is reported as 0.109 s⁻¹.
B6 showed a koff of 0.061 s⁻¹.
B7 gave a koff of 0.156 s⁻¹.
B8 gave a koff of 0.0666 s⁻¹.
Binder B9 has a koff of 0.0297 s⁻¹.
With B10 the koff was 0.101 s⁻¹.
For B11, the koff was 0.0149 s⁻¹.
For B12, the koff was 0.109 s⁻¹.
B13 showed a koff of 0.11 s⁻¹.
With B14 the koff was 0.104 s⁻¹.
B15 was tested, and the koff was 0.126 s⁻¹.
In the case of B16, the koff is reported as 0.126 s⁻¹.
In the case of B17, the koff is reported as 0.114 s⁻¹.
Work on B18 yielded a koff of 0.108 s⁻¹.
Work on B19 yielded a koff of 0.116 s⁻¹.
In the case of B20, the koff is reported as 0.122 s⁻¹.
Work on B21 yielded a koff of 0.122 s⁻¹.
Binder B22 has a koff of 0.12 s⁻¹.
Work on B23 yielded a koff of 0.117 s⁻¹.
Binder B24 has a koff of 0.116 s⁻¹.

Each binder was assayed against T2, human IL-2Rγ (common cytokine receptor …) in the same assay as above.
Procedure, shortened: as §2
Binder B1 has a koff of 0.00201 s⁻¹.
In the case of B2, the koff is reported as 0.00143 s⁻¹.
For B3, the koff was 0.00145 s⁻¹.
B4 gave a koff of 0.00189 s⁻¹.
B5 gave a koff of 0.00162 s⁻¹.
B6 was tested, and the koff was 0.00074 s⁻¹.
Work on B7 yielded a koff of 0.00249 s⁻¹.
Binder B8 has a koff of 0.00122 s⁻¹.
With B9 the koff was 0.001 s⁻¹.
For B10, the koff was 0.00154 s⁻¹.
B11 was tested, and the koff was 0.00235 s⁻¹.
In the case of B12, the koff is reported as 0.00266 s⁻¹.
B13 showed a koff of 0.00268 s⁻¹.
B14 was tested, and the koff was 0.00206 s⁻¹.
For B15, the koff was 0.00306 s⁻¹.
B16 was tested, and the koff was 0.00196 s⁻¹.
Binder B17 has a koff of 0.00148 s⁻¹.
For B18, the koff was 0.00273 s⁻¹.
B19 was tested, and the koff was 0.00298 s⁻¹.
B20 showed a koff of 0.00197 s⁻¹.
Work on B21 yielded a koff of 0.00146 s⁻¹.
B22 was tested, and the koff was 0.00139 s⁻¹.
For B23, the koff was 0.00149 s⁻¹.
In the case of B24, the koff is reported as 0.00344 s⁻¹.
